Experimental data reported in ChEMBL document CHEMBL2074521, “Partial purification and reconstitution of the human multidrug-resistance pump: characterization of the drug-stimulatable ATP hydrolysis” (Proc Natl Acad Sci U S A, 1992).

Test system: COc1cc2c(c(OC)c1OC)-c1ccc(OC)c(=O)cc1[C@@H](NC(C)=O)CC2
Test: TP_TRANSPORTER: ATP hydrolysis in reconstituted proteoliposomes
Type: functional, subcellular

## ATP-dependent translocase ABCB1 (Homo sapiens)
  Km: 45 µM
